Laboratory results taken from article PMC2132652 (The Journal of Cell Biology, 1997).

B1: furin-HA (mouse furin tagged with the HA epitope), expressed stably in RBL cells (enzyme, UniProt P23188 108-793, looked up)
chain: DVYQEPTDPKFPQQWYLSGVTQRDLNVKEAWAQGFTGHGIVVSILDDGIEKNHPDLAGNYDPGASFDVNDQDPDPQPRYTQMNDNRHGTRCAGEVAAVANNGVCGVGVAYNARIGGVRMLDGEVTDAVEARSLGLNPNHIHIYSASWGPEDDGKTVDGPARLAEEAFFRGVSQGRGGLGSIFVWASGNGGREHDSCNCDGYTNSIYTLSISSATQFGNVPWYSEACSSTLATTYSSGNQNEKQIVTTDLRQKCTESHTGTSASAPLAAGIIALTLEANKNLTWRDMQHLVVQTSKPAHLNADDWATNGVGRKVSHSYGYGLLDAGAMVALAQNWTTVAPQRKCIVEILVEPKDIGKRLEVRKAVTACLGEPNHITRLEHVQARLTLSYNRRGDLAIHLISPMGTRSTLLAARPHDYSADGFNDWAFMTTHSWDEDPAGEWVLEIENTSEANNYGTLTKFTLVLYGTAPEGLSTPPESSGCKTLTSSQACVVCEEGYSLHQKSCVQHCPPGFIPQVLDTHYSTENDVEIIRASVCTPCHASCATCQGPAPTDCLSCPSHASLDPVEQTCSRQSQSSRESRPQQQPPALRPEVEMEPRLQAGLASHLPEVLAGLSCLIIVLIFGIVFLFLHRCSGFSFRGVKVYTMDRGLISYKGLPPEAWQEECPSDSEEDEGRGERTAFIKDQSAL
B2: furin-FLAG (mouse furin tagged with the FLAG epitope), expressed stably in RBL cells (enzyme)
chain: DVYQEPTDPKFPQQWYLSGVTQRDLNVKEAWAQGFTGHGIVVSILDDGIEKNHPDLAGNYDPGASFDVNDQDPDPQPRYTQMNDNRHGTRCAGEVAAVANNGVCGVGVAYNARIGGVRMLDGEVTDAVEARSLGLNPNHIHIYSASWGPEDDGKTVDGPARLAEEAFFRGVSQGRGGLGSIFVWASGNGGREHDSCNCDGYTNSIYTLSISSATQFGNVPWYSEACSSTLATTYSSGNQNEKQIVTTDLRQKCTESHTGTSASAPLAAGIIALTLEANKNLTWRDMQHLVVQTSKPAHLNADDWATNGVGRKVSHSYGYGLLDAGAMVALAQNWTTVAPQRKCIVEILVEPKDIGKRLEVRKAVTACLGEPNHITRLEHVQARLTLSYNRRGDLAIHLISPMGTRSTLLAARPHDYSADGFNDWAFMTTHSWDEDPAGEWVLEIENTSEANNYGTLTKFTLVLYGTAPEGLSTPPESSGCKTLTSSQACVVCEEGYSLHQKSCVQHCPPGFIPQVLDTHYSTENDVEIIRASVCTPCHASCATCQGPAPTDCLSCPSHASLDPVEQTCSRQSQSSRESRPQQQPPALRPEVEMEPRLQAGLASHLPEVLAGLSCLIIVLIFGIVFLFLHRCSGFSFRGVKVYTMDRGLISYKGLPPEAWQEECPSDSEEDEGRGERTAFIKDQSAL

Molecular target: the molecule itself
Experiment: cross-linking

Protein	stoichiometry N
B1	2
B2	2
